Data reported in patent publication US20230374148A1, “BINDING MOLECULES THAT MULTIMERISE CD45” (UCB BIOPHARMA SRL, priority 2020, published 2023).

Experiments:
Type in all cases: cell-based
THP-1 = experiment: Apoptosis of cell lines: THP-1; conditions: THP-1, 21 hrs
Text: (§1) The following cell lines representing various leukaemia's and lymphoma's, as classified by ATCC (www.atcc.org/), were used: Jurkat—acute T-cell leukaemia; CCRF-SB—B-cell acute lymphoblastic leukaemia; MC116—B-cell undifferentiated lymphoma; Raji, Ramos—Burkitt lymphoma (rare form of B-cell non-Hodgkin lymphoma); SU-DHL-4, SU-DHL-5, SU-DHL-8, NU-DUL-1, OCI-Ly3—Diffuse large B-cell lymphoma; THP-1—acute monocytic leukaemia; and Dakiki—B cell nasopharyngeal carcinoma.
(§2) Prior to an assay being performed, 1 vial of each of the above cell lines was thawed in a 37° C. water bath and then added to 20 ml complete media (RPMI 1640+2 mM GlutaMAX+1% Pen/Strep, all previous supplied by Invitrogen, +10% Fetal Bovine Serum (FBS), Sigma Aldrich). Cells were spun (500 g, 5 min, at RT) and re-suspended in 20 ml complete media to wash and spun again. Cells were resuspended in 10 ml complete media and then counted using a ChemoMetec NucleoCounter NC-3000. 6×10^6 cells of each cell line were spun (500 g, 5 min, at RT) and re-suspended in 4.8 ml complete media. 1×10^5 cells in 80 μl were then added to each well of a Corning Costar 96-well, cell culture treated, U-shaped-bottom microplate (cat no. 07-200-95). The plate was rested in a 37° C., 5% CO2 incubator for 2 hrs
(§3) Stocks of 4133-6294 BYbe and NegCtrl BYbe at 2500 nM in complete media were prepared. In a Greiner 96-well non-binding microplate, both reagents were serially diluted in complete media 1 in 5, seven times to produce to form an 8-point dose curve. […] (final well concentrations 500-0.0064 nM) was added to the cells. Each concentration was produced in triplicate. Camptothecin (cat no. C9911-100MG, Sigma Aldrich) and Staurosporine (cat no. 56942-200UL, Sigma Aldrich) were added as positive controls of apoptosis. Both were diluted in complete media and added to the well to produce a final concentration of 5 μM. Additional positive controls included anti-thymocyte globulin (ATG, indicated by FDA for use in conditioning regimens), Rituximab (anti-CD20, indicated by FDA for Non-Hodgkin Lymphoma and Chronic Lymphocytic Leukaemia) and Campath (anti-CD52, indicated by FDA for B-cell Chronic Lymphocytic Leukaemia). Anti-thymocyte globulin, Rituximab and Campath were added to the wells to produce final concentrations of 200 μg/ml, 500 nM and 200 μg/ml, respectively. […]
(§4) Following the incubation, the plates were spun at 500 g, 5 min, RT, the buffer was aspirated with a BioTek ELx405 microplate washer, and the cells were re-suspended in FACS buffer (PBS+1% bovine serum albumin (BSA)+0.1% NaN3+2 mM EDTA, Sigma Aldrich) to wash and then re-spun and buffer was aspirated to leave the cells in 20 μl residual media. […] Cells were analysed using the Bio-Rad ZE5 Cell Analyzer. […]

Jurkat = experiment: Apoptosis of cell lines: Jurkat; conditions: 21 hrs
Text: as §1, §2, §3, §4

NU-DUL-1 = experiment: Apoptosis of cell lines: NU-DUL-1; conditions: NU-DUL-1, 21 hrs
Text: as §1, §2, §3, §4

Raji = experiment: Apoptosis of cell lines: Raji; conditions: 21 hrs
Text: as §1, §2, §3, §4

SU-DHL-8 = experiment: Apoptosis of cell lines: SU-DHL-8; conditions: SU-DHL-8, 21 hrs
Text: as §1, §2, §3, §4

SU-DHL-5 = experiment: Apoptosis of cell lines: SU-DHL-5; conditions: SU-DHL-5, 21 hrs
Text: as §1, §2, §3, §4

Ramos = experiment: Apoptosis of cell lines: Ramos; conditions: 21 hrs
Text: as §1, §2, §3, §4

In the case of “Campath: anti-CD52, clinical grade, indicated by FDA for B-cell Chronic Lymphocytic Leukaemia; positive control [reference compound]”, the “Campath mean (%) cell reduction” value (THP-1; 200 μg/ml) is reported as 15.40%, the “Campath mean (%) cell reduction” value (Jurkat; 200 μg/ml) is reported as 5.64% and the “Campath mean (%) cell reduction” value (NU-DUL-1; 200 μg/ml) is reported as 67.49%. For the same molecule, the “Campath mean (%) cell reduction” value (Raji; 200 μg/ml) was 36.00%, the “Campath mean (%) cell reduction” value (SU-DHL-8; 200 μg/ml) was 7.97% and the “Campath mean (%) cell reduction” value (SU-DHL-5; 200 μg/ml) was 26.74%. The “Campath mean (%) cell reduction” value (Ramos; 200 μg/ml) was 39.40%.

B1: 4133-6294 BYbe: anti-CD45 BYbe (Fab-scFv): 4133 Fab HC-G4S linker-6294 scFv heavy chain paired with 4133 light chain (antibody)
heavy: QEQLVESGGGLVQPEGSLTLTCTASGFSFSGNYYMCWVRQAPGKGLEWIGCLYTGSSGSTYYASWAKGRFTISKTSSTTVTLQMTSLTAADTATYFCARDLGYEIDGYGGLWGQGTLVTVSSGQPKAPSVFPLAPCCGDTPSSTVTLGCLVKGYLPEPVTVTWNSGTLTNGVRTFPSVRQSSGLYSLSSVVSVTSSSQPVTCNVAHPATNTKVDKTVAPSTCSKPGGGGSGGGGSEVQLVESGAELARPGASVKMSCKASGYTFTSYTMHWVKQRPGQCLEWIGYINPSSGYTEYNQKFKDKTTLTADKSSSTAYLQLSSLTSEDSAVYYCARVGDGFYPSWLAYWGQGTLVTVSSGGGGSGGGGSGGGGSGGGGSDIQMTQSPKFLLVSAGDRVTITCKASQSVRNDVAWYQQKPGQSPKLLIFYASKRYTGVPDRFTGSGYGTDFTFTISTVQAEDLAVYFCQQDYSSPTTFGCGTKLEIK
light: AQVLTQTPSPVSAVVGGTVSISCQASQSVYNNNNLSWYQQKPGQPPKLLIYDASKLASGVPSRFKGSGSGTQFTLTISGVQCDDAATYYCLGGYYSSGWYFAFGGGTKVVVKRTPVAPTVLIFPPAADQVATGTVTIVCVANKYFPDVTVTWEVDGTTQTTGIENSKTPQNSADCTYNLSSTLTLTSTQYNSHKEYTCKVTQGTTSVVQSFNRGDC
With B1 the “Bottom (%) level of % cell reduction” value (THP-1) was 8.14%, the “Top (%) level of % cell reduction” value (THP-1) was 60.72% and the “Bottom (%) level of % cell reduction” value (Jurkat) was 23.49%. The “Top (%) level of % cell reduction” value (Jurkat) was 99.27%, the “Bottom (%) level of % cell reduction” value (NU-DUL-1) was 5.07% and the “Top (%) level of % cell reduction” value (NU-DUL-1) was 44.87%. The “Bottom (%) level of % cell reduction” value (Raji) was 13.56%, the “Top (%) level of % cell reduction” value (Raji) was 74.02% and the “Bottom (%) level of % cell reduction” value (SU-DHL-8) was -2.97%. The “Top (%) level of % cell reduction” value (SU-DHL-8) was 16.77%, the “Bottom (%) level of % cell reduction” value (SU-DHL-5) was 43.93% and the “Top (%) level of % cell reduction” value (SU-DHL-5) was 91.01%. The “Bottom (%) level of % cell reduction” value (Ramos) was 1.61% and the “Top (%) level of % cell reduction” value (Ramos) was 96.11%.
